Results: patent US8492099B2, “Method of measuring enzymatic activity of adsorbed allergenic enzyme” (Alk-Abello A/S, priority 2005, dated 2013)

Tests used:
[1] = Papain activity over time in the absence of aluminium hydroxide; type: physicochemical; details: 10 μg/mL papain in 50 mM Bis-Tris, 4° C.
Method: Papain was mixed with 50 mM Bis-Tris buffer to a final concentration of 10 μg/mL in a total volume of 500 μL. The mixture was incubated at 4° C. and samples were taken out at 0, 30 and 60 min. The samples were diluted and incubated for 10 min in buffer containing DTT and subsequently activity was measured after addition of substrate. […] Additional loss occurs until the initiation of the enzymatic assay.

[2] = Adsorption of papain to aluminium hydroxide: protein concentration by A280; type: physicochemical; details: 100 μg/mL papain, 1.14 mg/mL aluminium hydroxide, 1 h at 4° C.; ANOVA p-value=0.615
From the text: The aromatic amino acids tryptophan, tyrosine and phenylalanine absorb ultraviolet light. However only tryptophan and tyrosine absorb at 280 nm and tryptophan absorbs 5 times more light than tyrosine. This is due to the […] transition in the indole ring of tryptophan where phenylalanine and tyrosine contains a phenyl group. The absorbance of a protein is linearly correlated with the amount of tryptophan and tyrosine in the protein, the length of the light path and the concentration of protein. This relationship is named Lambert-Beer's law and is given by: A=ε·l·c where A is the absorbance, ε is the molar absorption coefficient for the protein (determined by the amount of tryptophan and tyrosine in the protein) l is the length of the light path and c is the protein concentration. Thus from an absorbance measurement the concentration of protein can be estimated if the molar absorptivity coefficient is known. • Apparatuses • Lambda 800 UV/VIS Spectrometer, PerkinElmer™ • 100-QS, quartz cuvette, path length 1 cm, Hellma® • Materials and Reagents • 50 mM Bis-Tris pH 6.5, Sigma • 50 mM Tris pH 7.0, Sigma • 50 mM phosphate buffer pH 7.0, Merck • 2% Helmanex solution, Hellma Experimental Procedure
The spectrophotometer was turned on 30 min prior to use for a warm up period. […] After cleaning the cuvette 20 μL of sample was transferred to the cuvette and the absorbance was measured. […]

[3] = Adsorption of papain to aluminium hydroxide: active enzyme by active site titration with E-64; type: biochemical
Method: (§1) After adsorption 500 μL was taken out for further analysis and the rest of the mixture was centrifuged for 10 min at 400 rpm. The rest of the samples analysed follow the flow scheme in FIG. 12. Furthermore a control (Con) containing papain in Bis-Tris buffer in the absence of aluminium hydroxide was prepared.
The active site titration was used to estimate the amount of active enzyme in the different samples. This is in contrast to the protein concentration estimated from A280 which represents the total protein content of the sample.

[4] = Papain enzyme activity fluorescence assay (activity measurements and Michaelis-Menten kinetic), papain/aluminium hydroxide adsorption experiment; type: biochemical
Method: After measuring the enzymatic activity the maximal slope of the progress curve was estimated using the software SoftMax® PRO Life Sciences Edition, Molecular Devices, 2001. After estimating the initial velocity of the experiments they were transferred to Prism and analyzed.
as §1
Two types of enzymatic assays were performed: (i) activity measurements using a fixed substrate concentration to evaluate enzyme activity and (ii) Michaelis-Menten kinetic to estimate the kinetic parameters Vmax and KM.
All activity assays were conducted with BisTris buffer, pH 6.5, 5 mM DTT/, mM EDTA and Z-FR-AMC as substrate.

[5] = Adsorbed: papain adsorbed to aluminium hydroxide (mix 2)
[6] = Control: papain in the absence of aluminium hydroxide
[7] = activity measurements, 30 μM Z-FR-AMC

Activity of the control lower than the activity of Mix1 ([4]; papain without vs with aluminium hydroxide): 17%
B1: papain: cysteine protease Car p 1 from the plant Carica papaya, purified, Sigma; chosen as negative control (protein, UniProt P00784 134-345, looked up)
Papain: IPEYVDWRQKGAVTPVKNQGSCGSCWAFSAVVTIEGIIKIRTGNLNEYSEQELLDCDRRSYGCNGGYPWSALQLVAQYGIHYRNTYPYEGVQRYCRSREKGPYAAKTDGVRQVQPYNEGALLYSIANQPVSVVLEAAGKDFQLYRGGIFVGPCGNKVDHAVAAVGYGPNYILIKNSWGTGWGENGYIRIKRGTGNSYGVCGLYTSSFYPVKN
Activity at 60 min lower than at 0 and 30 min (loss of activity) [1]: 7%
Adsorption of papain to aluminium hydroxide (A280, Con vs Sup1) [2]: does not adsorb significantly
Active papain adsorbed to aluminium hydroxide (Mix3) [3]: approximately 7%
Active papain in solution (Sup1+Sup2) [3]: 91%
Vmax in Mix3 relative to Mix1 [4]: 7%
Vmax in solution (Sup1+Sup2) relative to Mix1 [4]: 97%
Km [4, 5]: 21 µM
Vmax [4, 5]: 44.1 ng/mL · s
kcat (Vmax/protein concentration, A280) [4, 5]: 14.58 s⁻¹
kcat (Vmax/protein concentration, active site titration) [4, 5]: 12.18 s⁻¹
Vmax [4, 6]: 373.9 ng/mL · s
kcat (Vmax/protein concentration, A280) [4, 6]: 5.13 s⁻¹
kcat (Vmax/protein concentration, active site titration) [4, 6]: 11.41 s⁻¹
Km ([4]; Control: papain in the absence of aluminium hydroxide, Z-FR-AMC, pH 6.5): 22 µM
Activity in Mix1 found in solution (Sup1+Sup2) [4, 7]: 96%
Activity of papain adsorbed to aluminium hydroxide (Mix3) [4, 7]: 8%
Difference between KM estimates of samples in presence and absence of aluminium hydroxide ([4]; one-way ANOVA p-value=0.999): no significant difference
Part of the enzyme not bound to the adjuvant ([4]; papain with aluminium hydroxide): 93%
